Test results: US20220098319A1 (SHANGHAI PHARMAEXPLORER, published 2022)
Changes are numbered by the printed parent chain.

T1: His-tagged CD73 extracellular domain protein (hCD73 ECD-His) (human, UniProt P21589 27-547)
T1 construct: Expressed in CHO cells from pTT5-hCD73 ECD-His6, purified on nickel column; also called hCD73 ECD-His6; human CD73 ECD
T1 sequence: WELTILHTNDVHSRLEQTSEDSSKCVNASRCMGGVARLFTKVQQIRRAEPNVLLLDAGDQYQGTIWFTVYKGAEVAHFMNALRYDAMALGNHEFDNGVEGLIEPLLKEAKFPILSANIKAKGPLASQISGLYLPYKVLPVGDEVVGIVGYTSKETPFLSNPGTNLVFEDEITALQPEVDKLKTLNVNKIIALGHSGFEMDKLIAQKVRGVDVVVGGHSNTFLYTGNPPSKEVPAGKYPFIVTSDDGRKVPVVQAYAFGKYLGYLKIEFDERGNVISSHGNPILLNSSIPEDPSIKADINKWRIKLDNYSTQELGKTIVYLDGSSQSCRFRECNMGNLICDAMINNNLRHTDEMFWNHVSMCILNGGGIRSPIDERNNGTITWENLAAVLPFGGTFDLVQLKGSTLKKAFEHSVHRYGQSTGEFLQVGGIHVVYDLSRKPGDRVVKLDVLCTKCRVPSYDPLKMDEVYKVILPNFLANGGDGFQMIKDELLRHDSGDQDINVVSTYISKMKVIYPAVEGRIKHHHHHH

T2: human CD73 (full length, on transfected CHOK1 cells) (human, UniProt P21589 27-549)
T2 construct: whole, on cells; The same id is used for CD73 on human CD4+ T cells in the proliferation assays; also called CHOK1-hCD73; hCD73
T2 sequence (looked up): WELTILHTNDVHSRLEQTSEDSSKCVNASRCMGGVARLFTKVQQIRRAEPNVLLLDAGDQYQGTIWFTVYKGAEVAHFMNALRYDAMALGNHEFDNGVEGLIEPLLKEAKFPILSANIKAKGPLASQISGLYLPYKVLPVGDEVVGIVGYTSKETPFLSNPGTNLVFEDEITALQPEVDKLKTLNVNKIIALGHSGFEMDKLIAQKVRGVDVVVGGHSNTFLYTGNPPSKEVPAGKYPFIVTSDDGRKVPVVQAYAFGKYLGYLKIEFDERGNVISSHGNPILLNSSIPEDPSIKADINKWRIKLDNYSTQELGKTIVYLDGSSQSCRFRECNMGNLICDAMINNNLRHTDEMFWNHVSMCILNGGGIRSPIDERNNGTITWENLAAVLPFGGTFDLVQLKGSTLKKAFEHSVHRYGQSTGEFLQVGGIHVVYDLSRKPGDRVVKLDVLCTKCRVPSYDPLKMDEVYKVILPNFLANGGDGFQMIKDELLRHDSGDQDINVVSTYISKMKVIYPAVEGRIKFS

T3: murine CD73 (on transfected CHOK1 cells) (mouse, UniProt Q61503 29-551)
T3 construct: whole, on cells; also called CHOK1-mCD73; mCD73
T3 sequence (looked up): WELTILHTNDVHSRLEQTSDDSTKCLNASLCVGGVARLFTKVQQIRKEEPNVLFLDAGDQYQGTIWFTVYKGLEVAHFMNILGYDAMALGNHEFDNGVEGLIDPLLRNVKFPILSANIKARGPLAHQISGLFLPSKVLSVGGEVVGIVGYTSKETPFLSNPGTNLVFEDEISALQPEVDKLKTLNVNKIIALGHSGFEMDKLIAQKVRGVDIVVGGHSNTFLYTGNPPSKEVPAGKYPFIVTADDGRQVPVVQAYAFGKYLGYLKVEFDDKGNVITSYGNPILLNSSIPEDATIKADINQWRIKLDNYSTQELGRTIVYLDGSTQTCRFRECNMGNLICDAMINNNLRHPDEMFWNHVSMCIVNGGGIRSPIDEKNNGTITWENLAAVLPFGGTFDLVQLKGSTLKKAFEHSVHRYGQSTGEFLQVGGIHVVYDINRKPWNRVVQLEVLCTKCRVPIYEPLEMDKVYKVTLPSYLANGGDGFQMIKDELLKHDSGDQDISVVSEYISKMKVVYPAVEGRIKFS

T4: cynomolgus monkey CD73 (on transfected CHOK1 cells) (cynomolgus monkey, UniProt A0A2K5V5U7 27-549)
T4 construct: whole, on cells; also called CHOK1-cCD73; CHOK1-CCD73
T4 sequence: T2 sequence (looked up) with M199T, T350A, V466I

B1: mab042xhIgG1TM (clone 77B9A3), mouse-human chimeric anti-CD73 antibody (antibody, V domains shown)
VH: QVQLQQSGAGLVKPGASVKLSCKASGYTFTNYWMHWVKQRPGQGLEWIGMIHPNSGSTNNNEKFKNKATLTVDKSSNTAYMQLSSLTSEDSAVYYCARFFFGGYPHYYALDYWGQGTSVTVSS
VL: DIVMTQSQKFMSTTVGDRVSITCKASQNVGTAVAWYQQKPGQSPKLLIYSASDRYTGVPDRLTGSGSGTDFTLTISNVQSEDLADYFCQQYSSFPLFTFGSGTKLVIQ
notes: also called mAb042 chimeric antibody
B2: mab065xhIgG1TM (clone 125A4E10), mouse-human chimeric anti-CD73 antibody (antibody, V domains shown)
VH: EVQLQQSGPELVKPGASVKISCKASGYTFTDYYMNWVKQSHGKSLEWIGNINPNNGDTNYNQKFKGKATLTVDKSSSTASMELRSLTSEDSAVYYCANSGYYYFDYWGQGTTLTVSS
VL: DIVMTQSPSSLTVTAGEKVTMSCKSSQSLLNSGNQKNYLTWYQQKPGQPPKVLIYWASTRESGVPDRFTGSGSGTDFTLTISSVQAEDLAVYYCQNDYSYPPTFGGGTNLEIK
notes: also called mAb065 chimeric antibody
B3: mab044xhIgG1TM (clone 80H7D6), mouse-human chimeric anti-CD73 antibody (antibody, V domains shown)
VH: EVKLVESGGGLVQPGGSLRLSCAASGFTFTDYYMSWVRQPPGKALEWLGFIRNKADGSTTEYSASVKGRFTISRDNSQSILYLQMNALRPEDSATYYCTRSPIYFDNWYFDVWGTGTTVTVSS
VL: DIVMSQSPSSLAVSVGEKVTMTCKSSQSLLYSNNQKNYLAWYQQKPGQSPKLLIYWASTRESGVPDRFTGSGSGTDFTLTLSSVKAEDLAVYYCQQYYSYPFTFGSGTKLEIK
notes: also called mAb044 chimeric antibody
B4: mab030xhIgG1TM (clone 42A5A7), mouse-human chimeric anti-CD73 antibody (antibody, V domains shown)
VH: DIQLQESGPGLVKPSQSLSLTCSVTGYSITSRYYWNWIRQFPGNKLEWMGYITYDDNNNYNPSLKNRISITRDTSKNQFFLKLNSVTPEDTATYYCARGGWDPFLYWGQGTLVTVSA
VL: DIQMTQSPASLSASVGETVTITCRASDNIYSYLAWYQQKQGKSLQLLVDSAKNLGEGVPSRFSGSGSGTQFYLKINSLQPEDFGVYYCQHYYGTPFTFGGGTKLELK
notes: also called mAb030 chimeric antibody
B5: Hu030-2, humanized anti-CD73 antibody (Hu030VH g1 / Hu030VL g0) (antibody, V domains shown)
VH: QVQLQESGPGLVKPSETLSLTCTVSGYSITSRYYWNWIRQPPGKGLEWIGYITYDDNNNYNPSLKNRVTISRDTSKNQFSLKLSSVTAADTAVYYCARGGWDPFLYWGQGTLVTVSS
VL: DIQMTQSPSSLSASVGDRVTITCRASDNIYSYLAWYQQKPGKAPKLLIYSAKNLGEGVPSRFSGSGSGTDFTLTISSLQPEDFATYYCQHYYGTPFTFGGGTKVEIK
notes: also called antibody 11

Each binder was assayed against T1, His-tagged CD73 extracellular domain … (assay: Octet BLI, antibody on AHC sensor, antigen 50-200 nM, 1:1 fit).
Description: Octet Red 96 was selected as the test instrument, and AHC biosensor was selected as the test sensor in this experiment. Anti-human IgG Fc antibody has been immobilized on the AHC sensor, which can be used to directly capture the 15 antibodies in this experiment. Then the sensor was immersed in the analysis sample (antigen). There were five steps in this experiment: 1, Baseline (120 s) 2, Loading (capture antibody) (300 s) 3, Baseline (120 s) 4, Association (binding antigen) (180 s) 5, Dissociation (antigen dissociation) (1200 s). After the test was completed, the regeneration buffer (Glycine PH1.5) and the neutralization buffer (1*PBS buffer) were alternately immersed for 5 seconds, and the sensor was regenerated by a total of five cycles. The maximum number of sensor regeneration times is 10. The running buffer in this experiment is the sample diluent (1*PBS buffer containing 0.02% Tween20 and 0.1% BSA), that is, the buffer used in the Baseline step, the Dissociation step, and the blank analyte sample. Four sensors are used at one running in this experiment.
Sample treatment: all the antibodies were diluted to the working concentration of 10 ug/ml with sample diluent (1*PBS buffer containing 0.02% Tween20 and 0.1% BSA), and the analyte samples (antigens) were diluted to three working concentrations: 200 nM, 100 nM and 50 nM.
For data analysis, Octet Data Analysis (version 7.0) was used to calculate the response signal value (the signal of the coupled analyte sample minus the signal of the blank analyte sample), and a 1:1 binding model was used to fit the data.

| Binder | Kd | koff | kon |
| --- | --- | --- | --- |
| B1 | 0.0592 nM | 2.73e-05 s⁻¹ | 461000 M⁻¹ s⁻¹ |
| B2 | 0.112 nM | 4.86e-05 s⁻¹ | 434000 M⁻¹ s⁻¹ |
| B3 | 0.086 nM | 3.29e-05 s⁻¹ | 383000 M⁻¹ s⁻¹ |
| B4 | 0.0385 nM | 1.16e-05 s⁻¹ | 302000 M⁻¹ s⁻¹ |

Each binder was assayed against T2, human CD73 (full length, on transfected …) (assay: FACS on CHOK1-hCD73 cells).

| Binder | EC50 | MAX MFI fold |
| --- | --- | --- |
| B1 | 2.3 nM | 136 fold |
| B2 | 1.2 nM | 160 fold |
| B3 | > 10 nM | > 150 fold |
| B4 | 1.5 nM | 114 fold |

These binders were tested against T2, human CD73 (full length, on transfected …) (assay: cell-based or functional assay).

| Binder | Inhibition assay of enzyme activity, IC50 | Inhibition assay of enzyme activity, MAX % inhibition |
| --- | --- | --- |
| B1 | 0.5 nM | 66.3% |
| B2 | 0.1 nM | 54.7% |
| B3 | 0.1 nM | 49.1% |
| B4 | 0.1 nM | 67.4% |

The binders below were run against T3, murine CD73 (on transfected CHOK1 cells) (assay: FACS on CHOK1-mCD73 cells).

| Binder | binding result |
| --- | --- |
| B1 | no binding |
| B2 | no binding |
| B3 | no binding |
| B4 | no binding |

What follows are binders tested against T1, His-tagged CD73 extracellular domain … (assay: affinity to hCD73 ECD-His (headed SPR; Octet assumed as in 5.5)).

| Binder | Kd | koff | kon |
| --- | --- | --- | --- |
| B4 | 0.0316 nM | 2.27e-05 s⁻¹ | 719000 M⁻¹ s⁻¹ |
| B5 | 0.0208 nM | 1.55e-05 s⁻¹ | 746000 M⁻¹ s⁻¹ |

Each binder was assayed against T4, cynomolgus monkey CD73 (on transfected …) (assay: FACS on CHOK1-cCD73 cells).

| Binder | EC50 | MAX MFI fold |
| --- | --- | --- |
| B1 | 5.9 nM | 132 fold |
| B2 | 3.6 nM | 173 fold |
| B3 | 7.6 nM | 174 fold |
| B4 | 0.8 nM | 138 fold |
